From US8969060B2, “Modified glucose dehydrogenase” (Ikeda Food Research Co., Ltd., priority 2011, dated 2015)

Tests used:
[1] = Relative enzymatic activity of GLD (DCIP/1-m-PMS, plate reader, yeast culture supernatant) with 1,10-phenanthroline present; type: biochemical; conditions: site-specific mutants, inhibitor final concentration 1 mM
In short: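 Yeast transformants grown in YPD, 30° C., 24 h; diluted culture supernatant assayed in phosphate buffer pH 7.0 with D-glucose, DCIP and 1-m-PMS, DCIP absorbance change at 600 nm. Relative activity (%) = activity with 1 mM 1,10-phenanthroline (final, replacing methanol) divided by activity without it.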

[2] = Relative enzymatic activity of GLD (DCIP/1-m-PMS, plate reader, yeast culture supernatant) with proflavin hydrochloride present; type: biochemical; conditions: site-specific mutants, inhibitor final concentration 1 mM
In short: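 Culture supernatant diluted and mixed with reagent of phosphate buffer pH 7.0, 1.0 M D-glucose, 3 mM DCIP, 3 mM 1-m-PMS and methanol (0.1:1:0.14:0.2:0.06). DCIP absorbance decrease at 600 nm followed; proflavin hydrochloride in methanol replaced methanol at 1 mM final. Activity expressed as % of inhibitor-free blank.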

Molecule | Relative Activity [%] 1,10-Phenanthroline [1] [%] | Relative Activity [%] Proflavin hydrochloride [2] [%]
Y424S: modified GLD: SEQ ID NO: 1 with substitution Y424S (protein, listed as Aspergillus terreus, SIGNAL (1)..(19)) MLGKLSFLSALSLAVAAPLSNSTSAKYDYIVIGGGTSGLAVANRLSEDPNVNVLILEAGGSVWNNPNVTNVDGYGLAFGSDIDWQYQSVNQPYGGNLSQVLRAGKALGGTSTINGMAYTRAEDVQIDAWETIGNTGWTWKNLFPYYRKSENFTVPTKSQTSLGASYEAGAHGHEGPLDVAFTQIESNNLTTYLNRTFQGMGLPWTEDVNGGKMRGFNLYPSTVNLEEYVREDAARAYYWPYKSRPNLHVLLNTFANRIVWDGEAHDGHITASGVEITSRNGTVRVINAEKEVIVSAGALKSPAILELSGIGNPSVLDKHNIPVKVNLPTVGENLQDQVNSHMDASGNTSISGTKAVSYPDVYDVFGDEAESVAKQIRANLKQYAADTAKANGNIMKAADLERLFEVQYDLIFKGRVPIAEVLNSPGSATSVFAEFWALLPFARGSVHIGSSNPAEFPVINPNYFMLDWDAKSYVAVAKYIRRSFESYPLSSIVKESTPGYDVIPRNASEQSWKEWVFDKNYRSNFHPVGTAAMMPREIGGVVDERLNVYGTTNVRVVDASVLPFQVCGHLVSTLYAVAERAADLIKADAGRR | 81.4 | 61.0
G426E: modified GLD: SEQ ID NO: 1 with substitution G426E (protein, listed as Aspergillus terreus, SIGNAL (1)..(19)) MLGKLSFLSALSLAVAAPLSNSTSAKYDYIVIGGGTSGLAVANRLSEDPNVNVLILEAGGSVWNNPNVTNVDGYGLAFGSDIDWQYQSVNQPYGGNLSQVLRAGKALGGTSTINGMAYTRAEDVQIDAWETIGNTGWTWKNLFPYYRKSENFTVPTKSQTSLGASYEAGAHGHEGPLDVAFTQIESNNLTTYLNRTFQGMGLPWTEDVNGGKMRGFNLYPSTVNLEEYVREDAARAYYWPYKSRPNLHVLLNTFANRIVWDGEAHDGHITASGVEITSRNGTVRVINAEKEVIVSAGALKSPAILELSGIGNPSVLDKHNIPVKVNLPTVGENLQDQVNSHMDASGNTSISGTKAVSYPDVYDVFGDEAESVAKQIRANLKQYAADTAKANGNIMKAADLERLFEVQYDLIFKGRVPIAEVLNYPESATSVFAEFWALLPFARGSVHIGSSNPAEFPVINPNYFMLDWDAKSYVAVAKYIRRSFESYPLSSIVKESTPGYDVIPRNASEQSWKEWVFDKNYRSNFHPVGTAAMMPREIGGVVDERLNVYGTTNVRVVDASVLPFQVCGHLVSTLYAVAERAADLIKADAGRR | 64.4 | 32.6
G352D: modified GLD: SEQ ID NO: 1 with substitution G352D (protein, listed as Aspergillus terreus, SIGNAL (1)..(19)) MLGKLSFLSALSLAVAAPLSNSTSAKYDYIVIGGGTSGLAVANRLSEDPNVNVLILEAGGSVWNNPNVTNVDGYGLAFGSDIDWQYQSVNQPYGGNLSQVLRAGKALGGTSTINGMAYTRAEDVQIDAWETIGNTGWTWKNLFPYYRKSENFTVPTKSQTSLGASYEAGAHGHEGPLDVAFTQIESNNLTTYLNRTFQGMGLPWTEDVNGGKMRGFNLYPSTVNLEEYVREDAARAYYWPYKSRPNLHVLLNTFANRIVWDGEAHDGHITASGVEITSRNGTVRVINAEKEVIVSAGALKSPAILELSGIGNPSVLDKHNIPVKVNLPTVGENLQDQVNSHMDASGNTSISDTKAVSYPDVYDVFGDEAESVAKQIRANLKQYAADTAKANGNIMKAADLERLFEVQYDLIFKGRVPIAEVLNYPGSATSVFAEFWALLPFARGSVHIGSSNPAEFPVINPNYFMLDWDAKSYVAVAKYIRRSFESYPLSSIVKESTPGYDVIPRNASEQSWKEWVFDKNYRSNFHPVGTAAMMPREIGGVVDERLNVYGTTNVRVVDASVLPFQVCGHLVSTLYAVAERAADLIKADAGRR | 87.8 | 42.7
Y424V: modified GLD: SEQ ID NO: 1 with substitution Y424V (protein, listed as Aspergillus terreus, SIGNAL (1)..(19)) MLGKLSFLSALSLAVAAPLSNSTSAKYDYIVIGGGTSGLAVANRLSEDPNVNVLILEAGGSVWNNPNVTNVDGYGLAFGSDIDWQYQSVNQPYGGNLSQVLRAGKALGGTSTINGMAYTRAEDVQIDAWETIGNTGWTWKNLFPYYRKSENFTVPTKSQTSLGASYEAGAHGHEGPLDVAFTQIESNNLTTYLNRTFQGMGLPWTEDVNGGKMRGFNLYPSTVNLEEYVREDAARAYYWPYKSRPNLHVLLNTFANRIVWDGEAHDGHITASGVEITSRNGTVRVINAEKEVIVSAGALKSPAILELSGIGNPSVLDKHNIPVKVNLPTVGENLQDQVNSHMDASGNTSISGTKAVSYPDVYDVFGDEAESVAKQIRANLKQYAADTAKANGNIMKAADLERLFEVQYDLIFKGRVPIAEVLNVPGSATSVFAEFWALLPFARGSVHIGSSNPAEFPVINPNYFMLDWDAKSYVAVAKYIRRSFESYPLSSIVKESTPGYDVIPRNASEQSWKEWVFDKNYRSNFHPVGTAAMMPREIGGVVDERLNVYGTTNVRVVDASVLPFQVCGHLVSTLYAVAERAADLIKADAGRR | 49.1 | 46.7
G352A: modified GLD: SEQ ID NO: 1 with substitution G352A (protein, listed as Aspergillus terreus, SIGNAL (1)..(19)) MLGKLSFLSALSLAVAAPLSNSTSAKYDYIVIGGGTSGLAVANRLSEDPNVNVLILEAGGSVWNNPNVTNVDGYGLAFGSDIDWQYQSVNQPYGGNLSQVLRAGKALGGTSTINGMAYTRAEDVQIDAWETIGNTGWTWKNLFPYYRKSENFTVPTKSQTSLGASYEAGAHGHEGPLDVAFTQIESNNLTTYLNRTFQGMGLPWTEDVNGGKMRGFNLYPSTVNLEEYVREDAARAYYWPYKSRPNLHVLLNTFANRIVWDGEAHDGHITASGVEITSRNGTVRVINAEKEVIVSAGALKSPAILELSGIGNPSVLDKHNIPVKVNLPTVGENLQDQVNSHMDASGNTSISATKAVSYPDVYDVFGDEAESVAKQIRANLKQYAADTAKANGNIMKAADLERLFEVQYDLIFKGRVPIAEVLNYPGSATSVFAEFWALLPFARGSVHIGSSNPAEFPVINPNYFMLDWDAKSYVAVAKYIRRSFESYPLSSIVKESTPGYDVIPRNASEQSWKEWVFDKNYRSNFHPVGTAAMMPREIGGVVDERLNVYGTTNVRVVDASVLPFQVCGHLVSTLYAVAERAADLIKADAGRR | 76.1 | 47.9
G426F: modified GLD: SEQ ID NO: 1 with substitution G426F (protein, listed as Aspergillus terreus, SIGNAL (1)..(19)) MLGKLSFLSALSLAVAAPLSNSTSAKYDYIVIGGGTSGLAVANRLSEDPNVNVLILEAGGSVWNNPNVTNVDGYGLAFGSDIDWQYQSVNQPYGGNLSQVLRAGKALGGTSTINGMAYTRAEDVQIDAWETIGNTGWTWKNLFPYYRKSENFTVPTKSQTSLGASYEAGAHGHEGPLDVAFTQIESNNLTTYLNRTFQGMGLPWTEDVNGGKMRGFNLYPSTVNLEEYVREDAARAYYWPYKSRPNLHVLLNTFANRIVWDGEAHDGHITASGVEITSRNGTVRVINAEKEVIVSAGALKSPAILELSGIGNPSVLDKHNIPVKVNLPTVGENLQDQVNSHMDASGNTSISGTKAVSYPDVYDVFGDEAESVAKQIRANLKQYAADTAKANGNIMKAADLERLFEVQYDLIFKGRVPIAEVLNYPFSATSVFAEFWALLPFARGSVHIGSSNPAEFPVINPNYFMLDWDAKSYVAVAKYIRRSFESYPLSSIVKESTPGYDVIPRNASEQSWKEWVFDKNYRSNFHPVGTAAMMPREIGGVVDERLNVYGTTNVRVVDASVLPFQVCGHLVSTLYAVAERAADLIKADAGRR | 60.5 | 51.8
G352C: modified GLD: SEQ ID NO: 1 with substitution G352C (protein, listed as Aspergillus terreus, SIGNAL (1)..(19)) MLGKLSFLSALSLAVAAPLSNSTSAKYDYIVIGGGTSGLAVANRLSEDPNVNVLILEAGGSVWNNPNVTNVDGYGLAFGSDIDWQYQSVNQPYGGNLSQVLRAGKALGGTSTINGMAYTRAEDVQIDAWETIGNTGWTWKNLFPYYRKSENFTVPTKSQTSLGASYEAGAHGHEGPLDVAFTQIESNNLTTYLNRTFQGMGLPWTEDVNGGKMRGFNLYPSTVNLEEYVREDAARAYYWPYKSRPNLHVLLNTFANRIVWDGEAHDGHITASGVEITSRNGTVRVINAEKEVIVSAGALKSPAILELSGIGNPSVLDKHNIPVKVNLPTVGENLQDQVNSHMDASGNTSISCTKAVSYPDVYDVFGDEAESVAKQIRANLKQYAADTAKANGNIMKAADLERLFEVQYDLIFKGRVPIAEVLNYPGSATSVFAEFWALLPFARGSVHIGSSNPAEFPVINPNYFMLDWDAKSYVAVAKYIRRSFESYPLSSIVKESTPGYDVIPRNASEQSWKEWVFDKNYRSNFHPVGTAAMMPREIGGVVDERLNVYGTTNVRVVDASVLPFQVCGHLVSTLYAVAERAADLIKADAGRR | 86.2 | 43.8
Y424T: modified GLD: SEQ ID NO: 1 with substitution Y424T (protein, listed as Aspergillus terreus, SIGNAL (1)..(19)) MLGKLSFLSALSLAVAAPLSNSTSAKYDYIVIGGGTSGLAVANRLSEDPNVNVLILEAGGSVWNNPNVTNVDGYGLAFGSDIDWQYQSVNQPYGGNLSQVLRAGKALGGTSTINGMAYTRAEDVQIDAWETIGNTGWTWKNLFPYYRKSENFTVPTKSQTSLGASYEAGAHGHEGPLDVAFTQIESNNLTTYLNRTFQGMGLPWTEDVNGGKMRGFNLYPSTVNLEEYVREDAARAYYWPYKSRPNLHVLLNTFANRIVWDGEAHDGHITASGVEITSRNGTVRVINAEKEVIVSAGALKSPAILELSGIGNPSVLDKHNIPVKVNLPTVGENLQDQVNSHMDASGNTSISGTKAVSYPDVYDVFGDEAESVAKQIRANLKQYAADTAKANGNIMKAADLERLFEVQYDLIFKGRVPIAEVLNTPGSATSVFAEFWALLPFARGSVHIGSSNPAEFPVINPNYFMLDWDAKSYVAVAKYIRRSFESYPLSSIVKESTPGYDVIPRNASEQSWKEWVFDKNYRSNFHPVGTAAMMPREIGGVVDERLNVYGTTNVRVVDASVLPFQVCGHLVSTLYAVAERAADLIKADAGRR | 71.2 | 43.4
